According to publication PMC8319308:

Molecular target: Gx-SB (protein G adapter domain fused to the small BiT fragment of split NanoLuc) (UniProt P06654)
Assay: other; 4C2-SB (SB1) conjugate with 19C7-LB; LB-SB affinity

## Gx-LB (protein G adapter domain fused to the large BiT fragment of split NanoLuc) (from UniProt P06654)
  Kd: 2500 nM
